In patent US20190119406A1 (BISON THERAPEUTICS, published 2019):

Biological target: T1, Mutant OA chain (long chain, CH1-hinge-CH2-CH3 with P395K, P396K, V397K) (human, UniProt P01857-1 1-330 = IgG part, P395K; P396K; V397K)
T1 construct: domain: CH1-hinge-CH2-CH3; Expressed alone it is expected as a long chain homodimer; also called OA mutation chain; Mutation OA chain
Test: three independent co-transfections in HEK293, protein A bead pull-down, SDS-PAGE (FIG. 6)
Procedure: DNA encoding long chain and short chain were mixed with 1:1 ratio and transfected into HEK293 cells. Three days later, cell culture supernatants were harvested and subjected to magnetic protein A beads pull-down. Proteins bound to magnetic beads were analyzed by SDS-PAGE electrophoresis.
Various positive charged and negative charged polypeptide chain combinations were co-expressed in HEK 293 cells. […] Three days after transfection, cell culture supernatants were harvested by centrifugation and subjected to protein A magnetic beads (Pierce) pull down. Protein products bound on magnetic beads were characterized based on their mobility on SDS-PAGE gel electrophoresis. Collected protein A magnetic beads with bound proteins were re-suspended in 30 μL PBS buffer, mixed with 30 μL of SDS-PAGE loading buffer and boiled for 5 min. Half volume of boiled samples was loaded onto 10% SDS-PAGE to separate long chain homodimer, long chain and short chain heterodimer and short chain homodimer.

B1: Mutant OB chain (short chain, hinge-CH2-CH3 with T394D, P395D, P396D) (other, human, UniProt P01857-1 104-330, looked up, name in EU numbering)
chain: DKTHTCPPCPAPELLGGPSVFLFPPKPKDTLMISRTPEVTCVVVDVSHEDPEVKFNWYVDGVEVHNAKTKPREEQYNSTYRVVSVLTVLHQDWLNGKEYKCKVSNKALPAPIEKTISKAKGQPREPQVYTLPPSRDELTKNQVSLTCLVKGFYPSDIAVEWESNGQPENNYKTDDDVLDSDGSFFLYSKLTVDKSRWQQGNVFSCSVMHEALHNHYTQKSLSLSPGK
notes: domain: hinge-CH2-CH3; also called OB mutation chain; Mutation OB chain
- binding result: binds
